± gives the half width of the 95% confidence interval.
Assays:
[1] = folding stability dG unfold (combined trypsin and chymotrypsin); higher = more stable
Procedure, shortened: (§1)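 Bayesian fitting of sequencing counts gave K50 for each design. Unfolding free energy followed by setting this against a sequence-predicted unfolded-state K50 and a shared folded-state K50, either per protease or with trypsin and chymotrypsin combined. The designs, under 80 residues and lacking cysteine, were digested in a PA-tagged cDNA display format at 11 threefold-diluted protease concentrations and without protease, and only those with AlphaFold2 dimer inter-PAE above 15 were kept.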

[2] = folding stability dG unfold from chymotrypsin proteolysis; higher = more stable
Procedure, shortened: as §1

[3] = folding stability dG unfold from trypsin proteolysis; higher = more stable
Procedure, shortened: as §1

| Sequence | folding stability dG unfold [1] [kcal/mol] | folding stability dG unfold [2] [kcal/mol] | folding stability dG unfold [3] [kcal/mol] |
| --- | --- | --- | --- |
| SASSELLELLKALPTPEVPTDPIFTLEEPDRPIRVLSYDPETGLVTMLIPGTGARLIRDPASGTYTLLPSAG [r14_359_JUSTAS] | 0.578 ± 0.066 | 0.92 ± 0.071 | -0.184 ± 0.07 |
| SASSFPPGSTATLTVRVTDPAGTATTTLTIPLSVDPSTGKAVSLEEVYEILKELGVDPANVTITSLTVSSAG [r14_93_JUSTAS] | 3.07 ± 0.08 | 3.143 ± 0.024 | 3.07 ± 0.088 |
| SASSSFTLPGLKLEVETQKVSTFPTPDGTPVVLYETTIHFLEVPESLRAEGKPLSLESSVKKLKVVPLPSAG [r14_942_JUSTAS] | 0.391 ± 0.2 | 0.453 ± 0.33 | 0.277 ± 0.14 |
| SASSSMSSSSTSRTVPTPEGPVSITITFYPSTGKYTATITDPATSTATTVPSPGSSVEEAIAEAIALLASAG [r14_65_JUSTAS] | 2.21 ± 0.088 | 2.39 ± 0.022 | 1.94 ± 0.091 |
| SASSVEKEFDSIEDALKAIKEALAKKVPVKMKMDPETVKELKKAGFPDIDVTKEKLPNGNEYYLLELLFSAG [r14_127_JUSTAS] | 1.15 ± 0.058 | 1.2 ± 0.051 | 1.06 ± 0.019 |
| SASVTTLTFTVTYPGGETETFTVTVPNLTEEEAKALAEKLAEEIQEKSKKPGVKVEVSITRYPADDPALSAG [r14_207_JUSTAS] | 4.2 ± 0.18 | 4.13 ± 0.21 | 3.9 ± 0.17 |
| SATKTITIELPVDVPVEVLKEFFEALGFTEMEFYETEDPRTLVVRFTVPGDPVTVIVIVRPLPVPPDEPLSA [r9_1090_TrMRF] | 3.55 ± 0.12 | 3.57 ± 0.063 | 3.29 ± 0.16 |
| SATLTFTATLPDGSRVLEVTAEPRPDGTVTIRMRAEFTFAPGVTVTVPATITVPVPPPPALPPDDPRLFSAG [r14_95_TrMRF] | 3.09 ± 0.086 | 3.33 ± 0.05 | 2.73 ± 0.057 |
| SATPYTFTLPDGYVIPAYKLPDGTVRVTAQYYDPVDRKPVGTYEATADPTDGTIELTFPNGDKATITLPDSA [r9_56_TrMRF] | 1.01 ± 0.09 | 1.01 ± 0.1 | 0.859 ± 0.051 |
| SAVSTAQLPDDTTLTTITLPGDPSVTLTITTRKLPDGTPYLDATITLPDGTPVTVTFPAGTEAAVIAALASA [r9_310_JUSTAS] | 2.44 ± 0.086 | 2.46 ± 0.029 | 2.51 ± 0.097 |
| SAVTLLSTEFVPEEGVVRLLFERPAPPDTTTFTFSVSVNGYPIESISLSVDPATNTATATATAKVPPGLSAG [r14_244_JUSTAS] | 3.2 ± 0.22 | 4.1 ± 0.11 | 2.42 ± 0.16 |
| SAWIEIEKDPDGMFELEIPWPDGHPVKIHYNPDDGKPLHIMFPNGWHLQIWISPDGKIEIEDIHPIPPNSAG [r14_877_TrROS] | 3.01 ± 0.13 | 3.12 ± 0.049 | 3.11 ± 0.24 |
| SAWKIWIEFTPGDPGDTYQIRIDPNSPNLEALLKELAQMFKYEVKDAEVEYNPNGSVWVEFKVDELKPPSAG [r14_655_TrROS] | 2.37 ± 0.095 | 2.67 ± 0.056 | 1.77 ± 0.081 |
| SDIEIERDPNMIRIEHTYPFDNYRVKISLYVMVGPDGQFMLMIPIEIELPPPPPTPEKDPNGKEKWKPDASA [r9_456_TrROS] | 3.85 ± 0.53 | 4.27 ± 0.21 | 2.67 ± 0.21 |
| SDIKIENYERNPGNGMYMWTVKLPDDGKKIEIMYPPGGIYISVEHPGKKKMFPFKSWEDMLDQVKDLLKNSA [r9_527_TrROS] | 1.36 ± 0.26 | 1.79 ± 0.23 | 1.24 ± 0.045 |
| SDKIIIPIYLPPGQDPDEIKNEIKWFARELWDKLGLPPNVKVEIEPRPYPEGYRRYMITIRLGGKEITIWSA [r9_776_TrROS] | 3.34 ± 0.22 | 3.6 ± 0.053 | 3.08 ± 0.1 |
| SDKIKNMTIEEILKKLPKGVKVGEKVEIEIDGKKITITKVEVVKDKNGKEIKRIYIEVEIDGEKIIIEIESA [r9_279_TrROS_Hall] | 2.69 ± 0.46 | 2.36 ± 0.27 | 2.39 ± 0.23 |
| SDMKIRIDDIDIQPLDEDGQPITINYKIEFGGQPVYFQIEIWVKPDGPVVIKIDIYNPDNGKPFEWTFPISA [r9_241_TrROS] | 2.48 ± 0.23 | 2.83 ± 0.08 | 2.13 ± 0.09 |
| SDPGHKFKMEIVREIYLPGQIRIFVHKMEHPNGNPWVNVMVRNPDGQMEPIAMVPSDDPDAKDEALKLIKSA [r9_1069_TrROS] | 0.391 ± 0.1 | 0.506 ± 0.14 | 0.035 ± 0.12 |
| SDRIEIEIWRHPNWWMIKIKVRDDGEPVGTQSFPVDDGMDIEEIADNLLNRNPNYKVEITEIEPMPPPPGSA [r9_364_TrROS] | 3.36 ± 0.41 | 3.82 ± 0.12 | 2.86 ± 0.16 |
| SDYMPVHKMESDGKRNPNGQHEYEPKMEPVWVPVPPPPPRIRIPPEWREKLKELAEKLGHPITDDDINKISA [r9_487_TrROS] | -0.13 ± 0.31 | 0.0759 ± 0.051 | -0.283 ± 0.19 |

| Sequence | folding stability dG unfold [1] [kcal/mol] | folding stability dG unfold [2] [kcal/mol] | folding stability dG unfold [3] [kcal/mol] |
| --- | --- | --- | --- |
| SEALEKAAEAGVKTIYVYVKPGDLEEIKRLKALDVKIVLYATEEIPPEAFEALPGVKVEKVEWISPEELPSA [r9_671_TrMRF] | 1.65 ± 0.1 | 2.08 ± 0.052 | 0.759 ± 0.023 |
| SEEELENLPNVVRLELEVEIDGVRVRIETEFRLNEDGSLEVRTRIEVEPLPPPVEVVLDENGELVEVRVESA [r9_456_TrROS_Hall] | 3.12 ± 0.14 | 3.42 ± 0.13 | 2.81 ± 0.08 |
| SEGSVRLEFTFTLPDGTRLTVEVTVHYDAATGEFHVSVSVRVEPLPDTSRPWEERPVRLPDGTWVSAADLSA [r9_898_TrMRF] | 2.5 ± 0.13 | 2.28 ± 0.1 | 2.54 ± 0.071 |
| SEITIKLKVENLSEEELKKLAEELAKEGLFEITSIKVENGYVTITIKKKPKPPPKPEKKKVVFDKDGKPVSA [r9_830_TrROS_Hall] | 2.2 ± 0.14 | 2.58 ± 0.12 | 0.975 ± 0.071 |
| SEITIYNKGKPPPEELLEALKKAPGFPPEDLRKNTKVEPNKDGPQITIPPEQAEQMSKRNPRIMEAIRELSA [r9_160_TrROS] | 1.44 ± 0.48 | 1.75 ± 0.37 | 1.64 ± 0.098 |
| SEKLTEEEVEKLAEELAKELEEETGKKVTVEVEVEKVEVEKDGEKEEVEVVRIKITVDPETGEVTIEVEPSA [r9_9_TrROS_Hall] | 1.56 ± 0.45 | 1.43 ± 0.2 | 1.49 ± 0.11 |
| SEKPPKVKIVSVEYNPETGTVTITVEVEPGQKVRIFVRNSDGSVQEIDLESKTITINLPPGAEIVRIEVLSA [r9_113_TrROS_Hall] | 4.09 ± 0.14 | 4.16 ± 0.12 | 3.9 ± 0.23 |
| SEKVKKELNEAGYPVKDIKFVPEKGYAYITVEVYVPEVDKKVEKEIVIPFPDSATPEQLTEAARKALEADSA [r9_184_TrMRF] | 3.09 ± 0.092 | 3.04 ± 0.076 | 3.04 ± 0.11 |
| SEMTAEELAARLAERLAEEHPGEEVTVEIEVEAEVVDEETGETRTVRVTVTLRFRDGKVEVVDVKVEELPSA [r9_361_TrROS_Hall] | 4.18 ± 0.086 | 4.49 ± 0.066 | 3.43 ± 0.092 |
| SEPPPKIKIKEVEYNPDDGYLTIPVTHPNGPKMRVKFRPPDGKTQEIPPNSPTITIPLPPNMRLTEIEVDSA [r9_113_TrROS] | 3.22 ± 0.33 | 2.79 ± 0.29 | 3.51 ± 0.31 |
| SETVEIEIELPDGTKVTITVDKDGKVHITIEVPEDNPELLEKGSIEELAKKLAEELGLSEKDVEVTVLPPSA [r9_401_TrROS_Hall] | 2.8 ± 0.27 | 2.45 ± 0.24 | 2.98 ± 0.29 |
| SEVVDTFSPPVTGSGEPRDFEIRLIKDENGNPVSVTMFDPVTGVEYPPDVSLEDLGVPPPVVEAFEAARRSS [r1_354_JUSTAS] | -0.0908 ± 0.069 | 0.0636 ± 0.062 | -0.48 ± 0.08 |
| SEVVFTLKDKPSPEELLKALAAVPGFSLETILKNTKVSPGKTGPKLTIKKEDFEKLEKENPEALEIIRSGSA [r9_160_TrMRF] | 1.09 ± 0.089 | 1.01 ± 0.11 | 1.2 ± 0.026 |
| SFGMIEIENEAFLPDGFRFKVEVWVMVDPDNGNLMIMLDIEIEPIPPPPPPPEPKPVKDKNGDWKPANDMSA [r9_898_TrROS] | 3.12 ± 0.18 | 3.79 ± 0.14 | 1.82 ± 0.14 |
| SFHVERDPEDNTIYIHFPPGMDPLELAKSLLKELREQQDDGPIKIHVHYGDWVFEIDIKKGKIEVRPPGESA [r9_224_TrROS] | 1.23 ± 0.18 | 1.19 ± 0.16 | 1.41 ± 0.1 |
| SFIRKDPDGTYVIMGRMPPNMPIEEFLENLPGFKIKDVEYQPDPENGYWYFTLVITPRGKVKIDWVPMGDSA [r9_238_TrROS] | 2 ± 0.11 | 1.91 ± 0.11 | 2 ± 0.03 |
| SFNISVSVEPDDDKYKVTIWIQVDPEEFPGQPPTPSVIEEIARELARDWGIKEVEIEPPPNGYYRHTFPLSA [r9_883_TrROS] | 1.88 ± 0.1 | 2.25 ± 0.057 | 1.33 ± 0.032 |
| SFTPEQVKDIAKTIANRMYDNGYEVEVDVEVEPVNNMPYVEIEFEWRDPDGQPWKFEIIIHPDGDIEIYPSA [r9_1027_TrROS] | 2.43 ± 0.21 | 2.7 ± 0.065 | 1.28 ± 0.16 |
| SFTVERNVYRIENPPKLVVNVIITAEDGTPVPPEVVEEAVRELEKAGFPVKKVSVTPLPDGSVLVTVEVDVS [r1_408_TrMRF] | 2.52 ± 0.083 | 2.13 ± 0.071 | 2.84 ± 0.1 |
| SGATLFIGRFPGEGTLIAVAKLPNGKEIVISFGNYPEGIAGIAALARELDPRAEIKHIELVPPDSVPPEFSA [r9_137_TrMRF] | 1.45 ± 0.11 | 1.49 ± 0.11 | 1.37 ± 0.038 |
| SGATVTVSKDGRTYTVTVSPNATVTVEVRDPTSTSTYTQTVPPGQPTTVSLPLPSDVSSSVTIASIDVGASA [r9_1152_JUSTAS] | 0.592 ± 0.072 | 0.656 ± 0.088 | 0.439 ± 0.025 |
